Assay results reported in article PMC12489471, “A multi-dentate, cooperative interaction between endo- and exo-ribonucleases within the bacterial RNA degradosome” (Nucleic Acids Research, 2025).
Like-named read-outs stand apart in the source and are kept apart here. Where no end group is shown, it is not given here.

B1: E. coli PNPase core, lacking S1 and KH domains (domain or fragment, UniProt P05055 1-552, looked up)
chain: MLNPIVRKFQYGQHTVTLETGMMARQATAAVMVSMDDTAVFVTVVGQKKAKPGQDFFPLTVNYQERTYAAGRIPGSFFRREGRPSEGETLIARLIDRPIRPLFPEGFVNEVQVIATVVSVNPQVNPDIVAMIGASAALSLSGIPFNGPIGAARVGYINDQYVLNPTQDELKESKLDLVVAGTEAAVLMVESEAQLLSEDQMLGAVVFGHEQQQVVIQNINELVKEAGKPRWDWQPEPVNEALNARVAALAEARLSDAYRITDKQERYAQVDVIKSETIATLLAEDETLDENELGEILHAIEKNVVRSRVLAGEPRIDGREKDMIRGLDVRTGVLPRTHGSALFTRGETQALVTATLGTARDAQVLDELMGERTDTFLFHYNFPPYSVGETGMVGSPKRREIGHGRLAKRGVLAVMPDMDKFPYTVRVVSEITESNGSSSMASVCGASLALMDAGVPIKAAVAGIAMGLVKEGDNYVVLSDILGDEDHLGDMDFKVAGSRDGISALQMDIKIEGITKEIMQVALNQAKGARLHILGVMEQAINAPRGDISEFA
notes: polynucleotide phosphorylase (PNPase), E. coli, core aa 1-552 by the methods (1-550 in the results), without the KH and S1 domains; The results and a legend give 1-550 for the core, the methods 1-552; source: E. coli Evo21(DE3), purified (Ni-NTA, intein cleavage, butyl, Q, SEC); not shown: Mycobacterium xenopi GyrA intein, C-terminal, cleaved; His8, C-terminal, cleaved
B2: E. coli PNPase (enzyme, UniProt P05055 1-711, looked up)
chain: MLNPIVRKFQYGQHTVTLETGMMARQATAAVMVSMDDTAVFVTVVGQKKAKPGQDFFPLTVNYQERTYAAGRIPGSFFRREGRPSEGETLIARLIDRPIRPLFPEGFVNEVQVIATVVSVNPQVNPDIVAMIGASAALSLSGIPFNGPIGAARVGYINDQYVLNPTQDELKESKLDLVVAGTEAAVLMVESEAQLLSEDQMLGAVVFGHEQQQVVIQNINELVKEAGKPRWDWQPEPVNEALNARVAALAEARLSDAYRITDKQERYAQVDVIKSETIATLLAEDETLDENELGEILHAIEKNVVRSRVLAGEPRIDGREKDMIRGLDVRTGVLPRTHGSALFTRGETQALVTATLGTARDAQVLDELMGERTDTFLFHYNFPPYSVGETGMVGSPKRREIGHGRLAKRGVLAVMPDMDKFPYTVRVVSEITESNGSSSMASVCGASLALMDAGVPIKAAVAGIAMGLVKEGDNYVVLSDILGDEDHLGDMDFKVAGSRDGISALQMDIKIEGITKEIMQVALNQAKGARLHILGVMEQAINAPRGDISEFAPRIHTIKINPDKIKDVIGKGGSVIRALTEETGTTIEIEDDGTVKIAATDGEKAKHAIRRIEEITAEIEVGRVYTGKVTRIVDFGAFVAIGGGKEGLVHISQIADKRVEKVTDYLQMGQEVPVKVLEVDRQGRIRLSIKEATEQSQPAAAPEAPAAEQGE
notes: polynucleotide phosphorylase (PNPase), E. coli; also called polynucleotide phosphorylase; full-length PNPase; source: E. coli BL21(DE3), purified (ammonium sulfate, Q, butyl-Sepharose, SEC)
B3: RNase E 511-1061 (domain or fragment, E. coli, UniProt P21513 511-1061, looked up)
chain: ALPSEEEFAERKRPEQPALATFAMPDVPPAPTPAEPAAPVVAPAPKAAPATPAAPAQPGLLSRFFGALKALFSGGEETKPTEQPAPKAEAKPERQQDRRKPRQNNRRDRNERRDTRSERTEGSDNREENRRNRRQAQQQTAETRESRQQAEVTEKARTADEQQAPRRERSRRRNDDKRQAQQEAKALNVEEQSVQETEQEERVRPVQPRRKQRQLNQKVRYEQSVAEEAVVAPVVEETVAAEPIVQEAPAPRTELVKVPLPVVAQTAPEQQEENNADNRDNGGMPRRSRRSPRHLRVSGQRRRRYRDERYPTQSPMPLTVACASPELASGKVWIRYPIVRPQDVQVEEQREQEEVHVQPMVTEVPVAAAIEPVVSAPVVEEVAGVVEAPVQVAEPQPEVVETTHPEVIAAAVTEQPQVITESDVAVAQEVAEQAEPVVEPQEETADIEEVVETAEVVVAEPEVVAQPAAPVVAEVAAEVETVAAVEPEVTVEHNHATAPMTRAPAPEYVPEAPRHSDWQRPTFAFEGKGAAGGHTATHHASAAPARPQPVE
notes: The construct is described nowhere in the methods

Experiments:
PNPase = target: T1, PNPase (Escherichia coli, UniProt P05055); type: binding, E. coli; conditions: SPR, 25°C, immobilized PNPase C-His, HEPES pH 7.2, contact 60 s
T1 construct: made in house; host or cells: E. coli Evo21(DE3)
Source text: Briefly, at the N-terminal of the construct, there is an Hisx6 affinity tag that will be used for affinity purification. Following the Hisx6 tag there is an maltose-binding protein (MBP) tag with a TEV cleavage site to maintain solubility of the peptides. Following the MBP tag the gene encoding the peptide is inserted, and is then followed by intein, a self-cleavable tag, followed by a choline-binding domain, which can be used for an extra step of affinity purification. […] After expression, cells were harvested, resuspended in Lysis Buffer 2 (20 mM Tris–HCl, pH 8.0, 80 mM KCl, 300 mM NaCl, 20 mM Imidazole, 0.5 mM TCEP), and lysed with a cell disruptor (Emulsiflex, Avestin). […] After subsequent rounds of washing with Ni Equilibration Buffer supplemented with, respectively, 0.1% Triton-X, 1 M NaCl, and a final wash in Ni Equilibration Buffer, samples were eluted with Ni Elution Buffer (20 mM Tris–HCl, pH 8.0, 300 mM NaCl, 300 mM imidazole, 0.5 mM TCEP). Enriched fractions were then supplemented with 100 mM β-mercaptoethanol to catalyse intein self-cleavage overnight at room temperature. Treated samples were filtered and loaded on an amylose gravity flow column, equilibrated with Amy Equilibration Buffer (20 mM Tris–HCl, pH 8.0, 20 mM NaCl, 20 mM imidazole, 2 mM β-mercaptoethanol) and after washing, His-tagged TEV protease was applied to the resin and incubated at 4°C for 2 h.
PNPase carrying a C-terminal Hisx6 tag was expressed from pExp-cis-Ec_PNP-CHis vector in E. coli Evo21(DE3) cells, induced with 0.4 mM IPTG, at 18°C overnight. After expression, cells were harvested and resuspended in Lysis Buffer 2 (20 mM Tris–HCl, pH 8.0, 80 mM KCl, 300 mM NaCl, 20 mM imidazole, 0.5 mM TCEP), and lysed with a cell disruptor (Emulsiflex, Avestin). […] After subsequent rounds of washing with equilibration buffer supplemented with 0.1% Triton-X, or 1 M NaCl, the sample was eluted with Ni PNPCHis Elution Buffer (20 mM NaH2PO4, pH 8.0, 300 mM NaCl, 300 mM KCl, 5 mM MgCl2, 300 mM imidazole, pH 7.5, 10 mM β-mercaptoethanol). […] Fractions containing PNPase were run through a HiPrep™ 26/10 Desalting Column (GE Healthcare) and buffer exchanged to Q PNPCHis A (20 mM NaH2PO4, pH 8.0, 30 mM NaCl, 10% glycerol, 0.5 mM TCEP).
Interaction measurements were made using a Biacore T200 instrument (GE) at 25°C. PNPase with a 6xHisTag at the CTD was immobilized on a Series S Sensor Chip NTA (Cytiva) to provide a signal of 5 response units (RU). […] For the SPR analysis of the point mutants, binding to PNPase was measured at four different concentrations (0, 12.5, 25, and 50 nM). All concentrations were run in duplicates. The contact time was 60 s, while the dissociation time was 120 s, at a […] flow rate. […] The chip surface was regenerated with 350 mM EDTA in water, following manufacturer's instructions. Data were processed using the manufacturer’s BIAevaluation software.

[1] = target: the molecule itself; experiment: SEC-MALS; Superdex 200 10/300 Increase, 100 µl at ~1 mg/ml, 25°C; buffer A (50 mM Tris pH 7.5, 100 mM NaCl, 100 mM KCl, 0.01% w/v b-DDM, 1 mM TCEP) or B (A without b-DDM) as Table S2 tells for each sample; the 1:1 ratio is one RNase E segment to one PNPase trimer (expected mass = trimer plus one segment)
[2] = SEC-MALLS molar mass of PNPase and PNPase/RNase E complexes; type: physicochemical
Protocol: Estimation of molar masses of PNPase and the various PNPase/RNase E complexes was carried out by size-exclusion chromatography with multi-angle laser light scattering (SEC-MALLS). Proteins (100 μl at ∼1 mg/ml concentration) were loaded onto a Superdex 200 10/300 Increase GL SEC column (GE Healthcare) at 0.5 ml/min using an AKTA Purifier FPLC system ([…]). Chromatograms were acquired using UNICORN software (GE Healthcare) at 280 nm. The eluent from the S200 column was analysed with an online DAWN HELEOS II MALLS instrument with eight detectors (Wyatt Technology), followed by an Optilab T-rEX differential refractometer (Wyatt Technology) at 25°C. Data collection and analysis were performed using ASTRA 6 software (Wyatt Technology). Eluted peaks from SEC column were evaluated by Zimm Plot, using a dn/dc value of 0.1850 ml/g. Bovine serum albumin was used as a standard to confirm the system performance (Supplementary Table S1).

E. coli PNPase = target: B2; experiment: SEC-MALS; Superdex 200 10/300 Increase, 100 µl at ~1 mg/ml, 25°C; buffer A (50 mM Tris pH 7.5, 100 mM NaCl, 100 mM KCl, 0.01% w/v b-DDM, 1 mM TCEP) or B (A without b-DDM) as Table S2 tells for each sample; the 1:1 ratio is one RNase E segment to one PNPase trimer (expected mass = trimer plus one segment); conditions: both partners purified
[3] = Superdex 200, 25°C, buffer B: A w/o bDDM

GAAGGHTATHHASAAPARPQPVE [RNase E 1039-1061]
KD range in words (PNPase; listed as RNase E peptide 1039–1061): micromolar range
KD range in words (PNPase; listed as residues 1039–1061): low μM range

B1
stoichiometry N [1]: 3

B2
stoichiometry N [1]: 3

B3
Mn number-averaged solute molar mass [2, 3]: 63,870 Da
Mw weight-averaged solute molar mass [2, 3]: 64,020 Da
Difference Mn from expected mass ([2]; buffer B, expected: trimer:RNase E 1:1 ratio for complexes): 4.4%
stoichiometry N (E. coli PNPase): 1
